According to patent US20180209962A1, “SCREENING METHOD USING INDUCED NEURONS” (KYOTO UNIVERSITY, priority 2014, published 2018):

What was measured:
[1] = biological target: tau oligomer secreted into the culture supernatant by human tauopathy iNs (FTDP-17 patient, MAPT intron 10+14 C>T) (human) (UniProt P10636); experiment: immunodepletion of human tauopathy iN culture supernatant with antibody-bound beads; tau oligomer measured by ELISA
[2] = biological target: tau oligomer secreted into the culture supernatant by human tauopathy iNs (FTDP-17 patient, MAPT intron 10+14 C>T) (human) (UniProt P10636); experiment: cell-based or functional assay

Sequence of tau oligomer secreted into the culture supernatant by human tauopathy iNs (FTDP-17 patient, MAPT intron 10+14 C>T) (human) (P10636 other isoform, or with tags, fused parts or gaps limits assumed): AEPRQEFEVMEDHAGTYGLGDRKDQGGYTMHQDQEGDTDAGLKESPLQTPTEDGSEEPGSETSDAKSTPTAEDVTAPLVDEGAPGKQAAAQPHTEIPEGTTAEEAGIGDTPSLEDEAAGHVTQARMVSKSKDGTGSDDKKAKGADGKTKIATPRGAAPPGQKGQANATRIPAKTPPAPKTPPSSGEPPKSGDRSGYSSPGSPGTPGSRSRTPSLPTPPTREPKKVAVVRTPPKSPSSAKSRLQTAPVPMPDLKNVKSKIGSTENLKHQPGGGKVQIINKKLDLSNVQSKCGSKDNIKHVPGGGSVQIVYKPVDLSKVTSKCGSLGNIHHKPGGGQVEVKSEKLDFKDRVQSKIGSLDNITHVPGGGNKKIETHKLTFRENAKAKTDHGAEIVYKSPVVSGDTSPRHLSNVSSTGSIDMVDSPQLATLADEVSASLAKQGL
Sequence of tau oligometric complex 1 antibody (TOC1 antibody) (heavy): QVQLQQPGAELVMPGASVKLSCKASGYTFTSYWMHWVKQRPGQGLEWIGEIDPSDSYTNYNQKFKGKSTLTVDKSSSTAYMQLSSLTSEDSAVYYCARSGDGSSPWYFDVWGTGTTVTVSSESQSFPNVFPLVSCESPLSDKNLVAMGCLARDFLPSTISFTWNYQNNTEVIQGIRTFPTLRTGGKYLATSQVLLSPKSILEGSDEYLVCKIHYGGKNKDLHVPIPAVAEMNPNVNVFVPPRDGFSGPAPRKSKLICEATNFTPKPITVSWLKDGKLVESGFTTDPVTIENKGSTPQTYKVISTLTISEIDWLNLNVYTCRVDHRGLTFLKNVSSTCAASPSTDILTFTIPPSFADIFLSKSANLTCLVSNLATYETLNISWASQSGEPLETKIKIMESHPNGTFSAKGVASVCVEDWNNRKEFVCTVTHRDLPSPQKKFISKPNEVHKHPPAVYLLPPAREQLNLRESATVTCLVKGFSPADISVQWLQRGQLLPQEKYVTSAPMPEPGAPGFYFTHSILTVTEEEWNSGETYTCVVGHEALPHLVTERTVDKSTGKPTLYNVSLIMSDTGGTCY
Sequence of tau oligometric complex 1 antibody (TOC1 antibody) (light): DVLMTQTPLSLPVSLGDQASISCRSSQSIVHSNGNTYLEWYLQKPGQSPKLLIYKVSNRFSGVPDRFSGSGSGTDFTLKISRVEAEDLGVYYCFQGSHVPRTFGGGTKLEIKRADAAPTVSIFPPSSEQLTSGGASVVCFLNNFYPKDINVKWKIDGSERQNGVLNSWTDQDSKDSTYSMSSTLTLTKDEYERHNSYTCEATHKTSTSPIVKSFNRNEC

Q: How did the amount of tau oligomer left in the culture supernatant after immunodepletion [1] turn out when “tau oligometric complex 1 antibody (TOC1 antibody)” was run?
A: 27%

Q: What about the survival rate of human normal iNs two days after adding the immunodepleted culture supernatant [2] of the same substance?
A: 130%
